Laboratory results published in publication PMC8336837, “Structure of the human C9orf72-SMCR8 complex reveals a multivalent protein interaction architecture” (PLoS Biology, 2021).

T1: C9orf72 (full-length) (human, UniProt Q96LT7 1-481)
T1 construct: C9orf72, human, the longer isoform (481 AA); open reading frame commercially synthesized with codon optimization; also called Fl-C9orf72; C9orf72 Fl; source: Sf-9 insect cells, co-expressed with SMCR8 or SMCR8N-C, purified (Strep-Tactin, size-exclusion chromatography)
T1 sequence (looked up): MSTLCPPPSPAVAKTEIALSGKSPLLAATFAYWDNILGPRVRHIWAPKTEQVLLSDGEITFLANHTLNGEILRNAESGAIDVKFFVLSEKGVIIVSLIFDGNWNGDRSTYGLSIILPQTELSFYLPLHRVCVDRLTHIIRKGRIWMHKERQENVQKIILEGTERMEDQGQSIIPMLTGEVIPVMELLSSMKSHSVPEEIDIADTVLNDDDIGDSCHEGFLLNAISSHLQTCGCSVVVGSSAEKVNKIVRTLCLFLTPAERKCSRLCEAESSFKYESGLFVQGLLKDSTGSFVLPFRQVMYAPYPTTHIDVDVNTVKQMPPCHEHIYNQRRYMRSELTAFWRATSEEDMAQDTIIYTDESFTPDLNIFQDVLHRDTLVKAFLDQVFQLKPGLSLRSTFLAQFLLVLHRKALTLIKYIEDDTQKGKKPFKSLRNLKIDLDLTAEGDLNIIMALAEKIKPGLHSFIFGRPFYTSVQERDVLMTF

T2: SMCR8 (full-length) (human, UniProt Q8TEV9 1-937)
T2 construct: SMCR8, human, open reading frame amplified from a human cDNA library; residues 1-937; also called SMCR8 Fl; source: Sf-9 insect cells, co-expressed with C9orf72, purified (Strep-Tactin, size-exclusion chromatography)
T2 sequence (looked up): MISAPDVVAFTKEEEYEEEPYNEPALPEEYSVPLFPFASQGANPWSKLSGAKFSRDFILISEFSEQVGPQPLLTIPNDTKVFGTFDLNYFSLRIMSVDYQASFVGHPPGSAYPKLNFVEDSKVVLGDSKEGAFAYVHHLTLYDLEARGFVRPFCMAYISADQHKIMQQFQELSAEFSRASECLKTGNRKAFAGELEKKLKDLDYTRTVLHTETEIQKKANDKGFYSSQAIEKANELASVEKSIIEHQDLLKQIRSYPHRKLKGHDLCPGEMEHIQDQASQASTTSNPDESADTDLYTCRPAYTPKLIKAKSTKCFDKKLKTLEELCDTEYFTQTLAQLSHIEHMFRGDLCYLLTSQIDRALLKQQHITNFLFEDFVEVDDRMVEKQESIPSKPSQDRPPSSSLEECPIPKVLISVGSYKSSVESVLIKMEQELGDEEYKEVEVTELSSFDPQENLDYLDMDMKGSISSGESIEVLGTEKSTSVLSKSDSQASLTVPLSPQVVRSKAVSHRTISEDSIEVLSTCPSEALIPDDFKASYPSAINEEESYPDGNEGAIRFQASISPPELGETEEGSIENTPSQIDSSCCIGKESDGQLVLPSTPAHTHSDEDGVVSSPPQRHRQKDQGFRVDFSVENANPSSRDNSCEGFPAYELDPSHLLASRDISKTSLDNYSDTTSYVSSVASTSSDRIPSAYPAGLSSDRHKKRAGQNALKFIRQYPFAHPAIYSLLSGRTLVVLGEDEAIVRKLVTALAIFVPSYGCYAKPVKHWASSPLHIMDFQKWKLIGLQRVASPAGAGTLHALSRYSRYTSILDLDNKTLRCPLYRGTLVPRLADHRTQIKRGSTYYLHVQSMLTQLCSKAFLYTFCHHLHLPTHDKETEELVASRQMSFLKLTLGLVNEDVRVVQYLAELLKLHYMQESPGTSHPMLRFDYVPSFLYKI

T3: full-length C9orf72-SMCR8 complex (GST-tagged) (human, UniProt Q96LT7 1-481; Q8TEV9 1-937)
T3 construct: C9orf72, human, the longer isoform (481 AA); codon-optimised synthetic open reading frame; SMCR8, human, from a human cDNA library; GST on C9orf72 is stated for the GST pull-down; also called GST-tagged C9orf72-SMCR8; source: Sf-9 insect cells, the two proteins co-expressed, purified (Strep-Tactin, size-exclusion chromatography); not shown: GST, N-terminal, kept
T3 sequence (looked up) 1: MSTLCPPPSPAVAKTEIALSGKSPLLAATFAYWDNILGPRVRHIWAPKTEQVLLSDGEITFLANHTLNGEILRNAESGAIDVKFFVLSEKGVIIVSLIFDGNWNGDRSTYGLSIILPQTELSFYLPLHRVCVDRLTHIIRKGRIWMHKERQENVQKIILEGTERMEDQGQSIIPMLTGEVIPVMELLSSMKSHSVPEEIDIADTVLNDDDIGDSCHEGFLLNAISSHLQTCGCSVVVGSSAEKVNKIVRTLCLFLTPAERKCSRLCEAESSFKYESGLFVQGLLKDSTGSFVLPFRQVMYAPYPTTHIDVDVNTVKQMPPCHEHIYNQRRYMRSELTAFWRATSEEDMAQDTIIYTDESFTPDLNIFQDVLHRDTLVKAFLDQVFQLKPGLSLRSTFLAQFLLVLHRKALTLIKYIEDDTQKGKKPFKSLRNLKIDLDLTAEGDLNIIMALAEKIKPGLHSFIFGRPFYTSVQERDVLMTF
T3 sequence (looked up) 2: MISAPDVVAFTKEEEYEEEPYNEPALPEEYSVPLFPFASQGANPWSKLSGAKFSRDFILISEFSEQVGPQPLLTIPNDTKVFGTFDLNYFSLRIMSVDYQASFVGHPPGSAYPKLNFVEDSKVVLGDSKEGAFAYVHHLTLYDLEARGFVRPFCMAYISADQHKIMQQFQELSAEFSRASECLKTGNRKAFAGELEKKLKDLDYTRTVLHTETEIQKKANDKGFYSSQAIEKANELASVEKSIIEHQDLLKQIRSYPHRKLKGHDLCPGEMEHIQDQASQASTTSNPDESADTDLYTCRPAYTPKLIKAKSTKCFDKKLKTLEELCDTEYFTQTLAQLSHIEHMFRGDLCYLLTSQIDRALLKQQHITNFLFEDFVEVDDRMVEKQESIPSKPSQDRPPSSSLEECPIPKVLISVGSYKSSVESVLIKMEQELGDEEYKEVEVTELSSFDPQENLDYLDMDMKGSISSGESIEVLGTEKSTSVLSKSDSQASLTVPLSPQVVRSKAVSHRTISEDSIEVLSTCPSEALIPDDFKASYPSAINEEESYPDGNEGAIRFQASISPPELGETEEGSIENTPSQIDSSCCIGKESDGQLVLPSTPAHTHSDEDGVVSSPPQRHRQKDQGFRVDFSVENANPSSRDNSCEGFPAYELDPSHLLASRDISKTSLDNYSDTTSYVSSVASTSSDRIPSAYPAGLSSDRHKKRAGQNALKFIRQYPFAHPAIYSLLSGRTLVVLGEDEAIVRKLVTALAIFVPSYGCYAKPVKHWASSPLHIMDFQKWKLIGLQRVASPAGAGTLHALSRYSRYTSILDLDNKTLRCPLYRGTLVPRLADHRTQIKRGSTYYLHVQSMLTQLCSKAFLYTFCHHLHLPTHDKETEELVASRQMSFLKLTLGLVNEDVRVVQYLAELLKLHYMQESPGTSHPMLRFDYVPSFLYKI

B1: N-terminal domain of SMCR8 (SMCR8N), tryptic fragment (domain or fragment, human, UniProt Q8TEV9 1-439, looked up)
chain: MISAPDVVAFTKEEEYEEEPYNEPALPEEYSVPLFPFASQGANPWSKLSGAKFSRDFILISEFSEQVGPQPLLTIPNDTKVFGTFDLNYFSLRIMSVDYQASFVGHPPGSAYPKLNFVEDSKVVLGDSKEGAFAYVHHLTLYDLEARGFVRPFCMAYISADQHKIMQQFQELSAEFSRASECLKTGNRKAFAGELEKKLKDLDYTRTVLHTETEIQKKANDKGFYSSQAIEKANELASVEKSIIEHQDLLKQIRSYPHRKLKGHDLCPGEMEHIQDQASQASTTSNPDESADTDLYTCRPAYTPKLIKAKSTKCFDKKLKTLEELCDTEYFTQTLAQLSHIEHMFRGDLCYLLTSQIDRALLKQQHITNFLFEDFVEVDDRMVEKQESIPSKPSQDRPPSSSLEECPIPKVLISVGSYKSSVESVLIKMEQELGDEEYK
notes: SMCR8, human, residues 1 to 439, product of limited proteolysis identified by mass spectrometry; source: Sf-9 insect cells; purified full-length C9orf72-SMCR8-WDR41 complex cut with trypsin
B2: WDR41 (full-length) (natural protein, human, UniProt Q9HAD4 1-459, looked up)
chain: MLRWLIGGGREPQGLAEKSPLQTIGEEQTQNPYTELLVLKAHHDIVRFLVQLDDYRFASAGDDGIVVVWNAQTGEKLLELNGHTQKITAIITFPSLESCEEKNQLILTASADRTVIVWDGDTTRQVQRISCFQSTVKCLTVLQRLDVWLSGGNDLCVWNRKLDLLCKTSHLSDTGISALVEIPKNCVVAAVGKELIIFRLVAPTEGSLEWDILEVKRLLDHQDNILSLINVNDLSFVTGSHVGELIIWDALDWTMQAYERNFWDPSPQLDTQQEIKLCQKSNDISIHHFTCDEENVFAAVGRGLYVYSLQMKRVIACQKTAHDSNVLHVARLPNRQLISCSEDGSVRIWELREKQQLAAEPVPTGFFNMWGFGRVSKQASQPVKKQQENATSCSLELIGDLIGHSSSVEMFLYFEDHGLVTCSADHLIILWKNGERESGLRSLRLFQKLEENGDLYLAV
notes: WDR41, human, open reading frame amplified from a human cDNA library; also called WDR41 Fl; source: Sf-9 insect cells, expressed individually, purified (Strep-Tactin, size-exclusion chromatography)

Key:
Settings in all cases: both partners purified
C9orf72 (full-length) = molecular target: T1, C9orf72 (full-length); test: SEC; limited proteolysis: full-length C9orf72-SMCR8-WDR41 complex (0.93 mg) with trypsin (4.6 ug) 20 minutes on ice, then size-exclusion chromatography; bands of the peak fraction identified by tandem mass spectrometry
SMCR8 (full-length) = molecular target: T2, SMCR8 (full-length); test: cross-linking; DSSO (0.5 to 10 mM, 1 hour at room temperature) on C9orf72-SMCR8 complex mixed with WDR41 in equimolar ratio (200 pmol) in 20 mM HEPES pH 8.0, 150 mM NaCl, 2 mM DTT, 3% glycerol; mass spectrometry after digestion
[1] = molecular target: T3, full-length C9orf72-SMCR8 complex …; test: SEC; reconstitution of the trimeric complex from purified C9orf72-SMCR8 and WDR41; Superose 6 10/300 GL, 20 mM HEPES pH 8.0, 150 mM NaCl, 2 mM DTT, 3% glycerol

Binder | binding result (C9orf72 (full-length)) | binding result (SMCR8 (full-length)) | binding result [1]
B1 | binds |  | 
B2 |  | binds | binds
